The test system of data set [1] is T1, LongLRRKtide (RLGRDKYKTLRQIRQGNTKQR).
T1 sequence: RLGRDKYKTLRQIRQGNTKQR

For data set [2], the system named is T2, LRRKtide peptide (RLGRDKYKTLRQIRQ).
T2 sequence: RLGRDKYKTLRQIRQ

Consider GST-LRRK2[1326-2527], for which, in data set [1], the “affinity relative to LRRKtide (from phosphorylation with LRRK2)” value is on record as “The LRRK2 affinity for the longLRRKtide is ten fold more than that that of LRRKtide”. Also, the “Km (phosphorylation of LRRKtide, P81 paper 32P assay)” value in data set [2] is given as “a similar Km of approximately 200 µM”.

The record behind these values is patent US20090142784.
